Among the data in patent publication US11541107B2, “Peptides and T cells for use in immunotherapeutic treatment of various cancers” (Immatics Biotechnologies GmbH, priority 2015, dated 2023) are Peptide exchange values, retold here.

The target of assay [1] is HLA-A*02 (Homo sapiens, UniProt P04439, D140Y/D185E/D98H/E176V/E277Q/G131W/G231S/I119V/I121R/I166T/I218V/L300P/N151K/N90K/P208A/P217A/Q86G/Q94H/R138H/R169H). The experiment in a line: MHC binding assay, UV-ligand exchange with beta2m ELISA, HLA-A*02. The conditions noted are these: binding to HLA-A*02 ranged by peptide exchange yield (UV-ligand exchange, beta2m ELISA). From the text: Candidate peptides for T cell based therapies according to the present invention were further tested for their MHC binding capacity (affinity). The individual peptide-MHC complexes were produced by UV-ligand exchange, where a UV-sensitive peptide is cleaved upon UV-irradiation, and exchanged with the peptide of interest as analyzed. Only peptide candidates that can effectively bind and stabilize the peptide-receptive MHC molecules prevent dissociation of the MHC complexes. To determine the yield of the exchange reaction, an ELISA was performed based on the detection of the light chain (ß2 m) of stabilized MHC complexes. The assay was performed as generally described in Rodenko et al. (Rodenko et al., 2006).
96 well MAXISorp plates (NUNC) were coated over night with 2 ug/ml streptavidin in PBS at room temperature, washed 4× and blocked for 1 h at 37° C. in 2% BSA containing blocking buffer. […] Peptide-MHC monomers of the UV-exchange reaction were diluted 100 fold in blocking buffer. Samples were incubated for 1 h at 37° C., washed four times, incubated with 2 ug/ml HRP conjugated anti-β2 m for 1h at 37° C., washed again and detected with TMB solution that is stopped with […]. Absorption was measured at 450 nm. Candidate peptides that show a high exchange yield (preferably higher than 50%, most preferred higher than 75%) are generally preferred for a generation and production of antibodies or fragments thereof, and/or T cell receptors or fragments thereof, as they show sufficient avidity to the MHC molecules and prevent dissociation of the MHC complexes.

Assay [2] relates to HLA-A*24. The experiment in a line: MHC binding assay, UV-ligand exchange with beta2m ELISA, HLA-A*24. On the set-up: species or system human. The conditions noted are these: binding to HLA-A*24 ranged by peptide exchange yield (UV-ligand exchange, beta2m ELISA). In short, it runs like this:
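Peptide–MHC complexes made by UV-ligand exchange of a UV-cleavable peptide. Exchange yield measured by ELISA: monomers diluted 100-fold on streptavidin-coated plates, 1 h at 37°C, detected with HRP anti-β2m (2 ug/ml) and TMB, absorbance at 450 nm.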
Background: An ELISA detects its analyte on a solid surface through an enzyme-linked reagent.

With “70 (GLFSQHFNL; listed as Homo sapiens) [compound 70]”, in assay [1], the Peptide exchange entry is “+++ (50%-75% = +++)”. For the substance “329 (FAWEPSFRDQV; listed as Homo sapiens) [compound 329]”, in assay [1], the Peptide exchange result is “++ (20%-49% = ++)”. As to “81 (VLFLGKLLV; listed as Homo sapiens) [compound 81]”, the Peptide exchange entry in assay [1] is given as “++ (20%-49% = ++)”. The same measure, in the same setting: for “8 (KLGPFLLNA; listed as Homo sapiens) [compound 8]” the value was “+++ (50%-75% = +++)”; for “71 (GLITVDIAL; listed as Homo sapiens) [compound 71]”, “+++ (50%-75% = +++)”; for “64 (GLSSSSYEL; listed as Homo sapiens) [compound 64]”, “++ (20%-49% = ++)”. In the case of “88 (ILLNTEDLASL; listed as Homo sapiens) [compound 88]”, in assay [1], the Peptide exchange entry is reported as “+++ (50%-75% = +++)”. Regarding “5 (SLFGQEVYC; listed as Homo sapiens) [compound 5]”, the Peptide exchange result in assay [1] is “+++ (50%-75% = +++)”. For the substance “80 (TLDEYLTYL; listed as Homo sapiens) [compound 80]”, the Peptide exchange result in assay [1] is given as “+++ (50%-75% = +++)”. Same read-out and setting: for “24 (FLWNGEDSAL; listed as Homo sapiens) [compound 24]” the value was “+++ (50%-75% = +++)”. For the substance “47 (GLYQAQVNL; listed as Homo sapiens) [compound 47]”, the Peptide exchange entry in assay [1] is recorded as “+++ (50%-75% = +++)”. Same read-out and setting: for “331 (AIWKELISL; listed as Homo sapiens) [compound 331]” the value was “+++ (50%-75% = +++)”. In the case of “77 (IVLSTIASV; listed as Homo sapiens) [compound 77]”, the Peptide exchange result in assay [1] is given as “+++ (50%-75% = +++)”. Turning to “28 (TLYSMDLMKV; listed as Homo sapiens) [compound 28]”, the Peptide exchange result in assay [1] was “+++ (50%-75% = +++)”.

Regarding “336 (GLMDGSPHFL; listed as Homo sapiens) [compound 336]”, the Peptide exchange result in assay [1] is “++ (20%-49% = ++)”. Turning to “45 (VLGPTPELV; listed as Homo sapiens) [compound 45]”, the Peptide exchange result in assay [1] is listed as “+++ (50%-75% = +++)”. For “65 (KLDGICWQV; listed as Homo sapiens) [compound 65]”, in assay [1], the Peptide exchange result was “+++ (50%-75% = +++)”. On to “91 (SSLEPQIQPV; listed as Homo sapiens) [compound 91]”, for which the Peptide exchange entry in assay [1] is listed as “+ (<20% = +)”.

Regarding “326 (SLLPLVWKI; listed as Homo sapiens) [compound 326]”, the Peptide exchange result in assay [1] is “+++ (50%-75% = +++)”. On the same count and under the same terms, the same measure for “12 (GLIYEETRGV; listed as Homo sapiens) [compound 12]”: “++ (20%-49% = ++)”; for “39 (ALMAVVSGL; listed as Homo sapiens) [compound 39]”: “+++ (50%-75% = +++)”; for “51 (LLLDGDFTL; listed as Homo sapiens) [compound 51]”: “+++ (50%-75% = +++)”. Consider “93 (SLLTQPIFL; listed as Homo sapiens) [compound 93]”, for which, in assay [1], the Peptide exchange result was “+++ (50%-75% = +++)”. “82 (VLLRVLIL; listed as Homo sapiens) [compound 82]”: in assay [1], the Peptide exchange result was “++ (20%-49% = ++)”.

With “335 (VLLAAGPSAA; listed as Homo sapiens) [compound 335]”, the Peptide exchange result in assay [1] is listed as “++ (20%-49% = ++)”.

For the substance “41 (FVLPLVVTL; listed as Homo sapiens) [compound 41]”, the Peptide exchange result in assay [1] was “+++ (50%-75% = +++)”.

Regarding “76 (ILLDESNFNHFL; listed as Homo sapiens) [compound 76]”, the Peptide exchange result in assay [1] is reported as “+++ (50%-75% = +++)”. For the substance “1 (PLWGKVFYL; listed as Homo sapiens) [compound 1]”, in assay [1], the Peptide exchange entry is “++ (20%-49% = ++)”. With “290 (KYGDFKLLEF; listed as Homo sapiens) [compound 290]”, in assay [2], the Peptide exchange result is recorded as “++++ (>=75% = ++++)”.

As to “355 (IYVTGGHLF; listed as Homo sapiens) [compound 355]”, in assay [2], the Peptide exchange entry was “+++ (50%-75% = +++)”. Turning to “135 (VYEAMVPLF; listed as Homo sapiens) [compound 135]”, the Peptide exchange result in assay [2] is “++++ (>=75% = ++++)”. As to “288 (VYPDTVALTF; listed as Homo sapiens) [compound 288]”, in assay [2], the Peptide exchange result is “++ (20%-49% = ++)”. On to “234 (SYLPAIWLL; listed as Homo sapiens) [compound 234]”, for which the Peptide exchange result in assay [2] is on record as “+++ (50%-75% = +++)”. For the substance “350 (KYGNFIDKL; listed as Homo sapiens) [compound 350]”, in assay [2], the Peptide exchange entry was “+++ (50%-75% = +++)”. In the case of “204 (EYLSTCSKL; listed as Homo sapiens) [compound 204]”, the Peptide exchange result in assay [2] is “+++ (50%-75% = +++)”. Take “384 (RYFDVGLHNF; listed as Homo sapiens) [compound 384]”: the Peptide exchange entry in assay [2] is “+++ (50%-75% = +++)”.

With “155 (IYKWITDNF; listed as Homo sapiens) [compound 155]”, the Peptide exchange entry in assay [2] is recorded as “++++ (>=75% = ++++)”. For “119 (VYRVYVTTF; listed as Homo sapiens) [compound 119]”, the Peptide exchange entry in assay [2] was “+++ (50%-75% = +++)”. “271 (RFLMKSYSF; listed as Homo sapiens) [compound 271]”: the Peptide exchange entry in assay [2] is given as “++++ (>=75% = ++++)”. Take “220 (SYSEIKDFL; listed as Homo sapiens) [compound 220]”: the Peptide exchange entry in assay [2] was “++++ (>=75% = ++++)”.

As for “281 (NYSPGLVSLIL; listed as Homo sapiens) [compound 281]”, in assay [2], the Peptide exchange result was “+++ (50%-75% = +++)”. In the case of “187 (AYAANVHYL; listed as Homo sapiens) [compound 187]”, the Peptide exchange entry in assay [2] is listed as “++++ (>=75% = ++++)”.

With “254 (KYLESSATF; listed as Homo sapiens) [compound 254]”, in assay [2], the Peptide exchange result is listed as “+++ (50%-75% = +++)”. For “216 (FYVNVKEQF; listed as Homo sapiens) [compound 216]”, the Peptide exchange result in assay [2] is recorded as “+++ (50%-75% = +++)”.

Consider “316 (VYFEGSDFKF; listed as Homo sapiens) [compound 316]”, for which the Peptide exchange result in assay [2] is “+++ (50%-75% = +++)”. In the case of “176 (FYINGQYQF; listed as Homo sapiens) [compound 176]”, the Peptide exchange entry in assay [2] is reported as “+++ (50%-75% = +++)”. As for “282 (NYLVDPVTI; listed as Homo sapiens) [compound 282]”, in assay [2], the Peptide exchange result is listed as “+++ (50%-75% = +++)”. Same read-out and setting: the same measure for “297 (TYIDTRTVF; listed as Homo sapiens) [compound 297]”: “++++ (>=75% = ++++)”; for “169 (NYITGKGDVF; listed as Homo sapiens) [compound 169]”: “+++ (50%-75% = +++)”; for “265 (SYLNEAFSF; listed as Homo sapiens) [compound 265]”: “++++ (>=75% = ++++)”. For “143 (KYIFQLNEI; listed as Homo sapiens) [compound 143]”, in assay [2], the Peptide exchange entry is “+++ (50%-75% = +++)”. As for “277 (FYTFPFQQL; listed as Homo sapiens) [compound 277]”, the Peptide exchange result in assay [2] is on record as “+++ (50%-75% = +++)”. With “217 (IYISNSIYF; listed as Homo sapiens) [compound 217]”, the Peptide exchange entry in assay [2] was “++++ (>=75% = ++++)”.
